# Measured values reported in patent US20130064834A1 (published 2013).
# T1: his-tagged Syrian golden hamster (Mesocricetus auratus) PCSK9 (Syrian golden hamster (Mesocricetus …))
# T1 construct: also called maPCSK9-h; maPCSK9
# T1 chain: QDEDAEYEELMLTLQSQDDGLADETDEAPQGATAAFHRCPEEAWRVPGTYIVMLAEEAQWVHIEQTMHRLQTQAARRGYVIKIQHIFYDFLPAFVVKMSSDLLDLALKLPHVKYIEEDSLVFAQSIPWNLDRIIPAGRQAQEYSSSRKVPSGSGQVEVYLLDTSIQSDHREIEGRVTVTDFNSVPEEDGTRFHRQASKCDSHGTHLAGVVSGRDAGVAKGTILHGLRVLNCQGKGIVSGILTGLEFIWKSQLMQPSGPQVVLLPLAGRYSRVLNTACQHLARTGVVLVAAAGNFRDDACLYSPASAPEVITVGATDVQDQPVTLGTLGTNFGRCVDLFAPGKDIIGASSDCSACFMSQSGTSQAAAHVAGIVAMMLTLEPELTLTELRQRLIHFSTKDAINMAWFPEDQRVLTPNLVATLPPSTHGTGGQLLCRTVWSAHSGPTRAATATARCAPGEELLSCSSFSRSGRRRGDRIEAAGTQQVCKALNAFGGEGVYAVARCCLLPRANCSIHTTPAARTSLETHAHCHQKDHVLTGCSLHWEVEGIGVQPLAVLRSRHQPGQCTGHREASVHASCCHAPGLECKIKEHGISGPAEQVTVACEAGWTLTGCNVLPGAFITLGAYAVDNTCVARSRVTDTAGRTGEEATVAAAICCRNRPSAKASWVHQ
# B1: H1H316P (antibody, V domains shown)
# VH: EVQLVESGGGLVQPGGSLRLSCAASGFTFNNYAMNWVRQAPGKGLDWVSTISGSGGTTNYADSVKGRFIISRDSSKHTLYLQMNSLRAEDTAVYYCAKDSNWGNFDLWGRGTLVTVSS
# VL: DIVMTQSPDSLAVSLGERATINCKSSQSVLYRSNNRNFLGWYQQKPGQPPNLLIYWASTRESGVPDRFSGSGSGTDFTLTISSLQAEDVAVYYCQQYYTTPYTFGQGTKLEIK
# notes: Fully human mAb made in CHO cells; also called mAb316P
# B2: H1M300N (antibody, V domains shown)
# VH: EMQLVESGGGLVQPGGSLRLSCAASGFTFSSHWMKWVRQAPGKGLEWVANINQDGSEKYYVDSVKGRFTISRDNAKNSLFLQMNSLRAEDTAVYYCARDIVLMVYDMDYYYYGMDVWGQGTTVTVSS
# VL: not shown
# notes: Fully human version made in CHO cells
# Assays:
# [1] = target: hPCSK9(P70A) (human, UniProt Q8NBP7 31-692); assay: ELISA, mAb coated, variant 0-5 nM
# Description: (§1) Anti-PCSK9 mAbs were coated on a 96-well plate overnight at 4° C.
# [2] = target: hPCSK9(P70A, S147F) (human, UniProt Q8NBP7 31-692); assay: ELISA, mAb coated, variant 0-5 nM
# Description: as §1
# [3] = target: T2, Human PCSK9-myc-myc-his (human, UniProt Q8NBP7 31-692); assay: ELISA, mAb coated, variant 0-5 nM
# T2 construct: also called hPCSK9-mmh; hPCSK9
# Description: as §1
# [4] = target: T3, hPCSK9(D129G) (human, UniProt Q8NBP7 31-692); assay: ELISA, mAb coated, variant 0-5 nM
# T3 construct: mmh-tagged variant hPCSK9
# Description: as §1
# [5] = target: T4, hPCSK9(S147F) (human, UniProt Q8NBP7 31-692); assay: ELISA, mAb coated, variant 0-5 nM
# T4 construct: mmh-tagged variant hPCSK9
# Description: as §1
# [6] = target: T5, hPCSK9(S153R) (human, UniProt Q8NBP7 31-692); assay: ELISA, mAb coated, variant 0-5 nM
# T5 construct: mmh-tagged variant hPCSK9
# Description: as §1
# [7] = target: T6, hPCSK9(E159R) (human, UniProt Q8NBP7 31-692); assay: ELISA, mAb coated, variant 0-5 nM
# T6 construct: mmh-tagged variant hPCSK9
# Description: as §1
# [8] = target: T7, hPCSK9(T162R) (human, UniProt Q8NBP7 31-692); assay: ELISA, mAb coated, variant 0-5 nM
# T7 construct: mmh-tagged variant hPCSK9
# Description: as §1
# [9] = target: T8, hPCSK9(R194E) (human, UniProt Q8NBP7 31-692); assay: ELISA, mAb coated, variant 0-5 nM
# T8 construct: mmh-tagged variant hPCSK9
# Description: as §1
# [10] = target: T9, hPCSK9(E197R) (human, UniProt Q8NBP7 31-692); assay: ELISA, mAb coated, variant 0-5 nM
# T9 construct: mmh-tagged variant hPCSK9
# Description: as §1
# [11] = target: T10, hPCSK9(R215H) (human, UniProt Q8NBP7 31-692); assay: ELISA, mAb coated, variant 0-5 nM
# T10 construct: mmh-tagged variant hPCSK9
# Description: as §1
# [12] = target: T11, hPCSK9(R215E) (human, UniProt Q8NBP7 31-692); assay: ELISA, mAb coated, variant 0-5 nM
# T11 construct: mmh-tagged variant hPCSK9
# Description: as §1
# [13] = target: T12, hPCSK9(F216L) (human, UniProt Q8NBP7 31-692); assay: ELISA, mAb coated, variant 0-5 nM
# T12 construct: mmh-tagged variant hPCSK9
# Description: as §1
# [14] = target: T13, hPCSK9(R237E) (human, UniProt Q8NBP7 31-692); assay: ELISA, mAb coated, variant 0-5 nM
# T13 construct: mmh-tagged variant hPCSK9
# Description: as §1
# [15] = target: T14, hPCSK9(D343R) (human, UniProt Q8NBP7 31-692); assay: ELISA, mAb coated, variant 0-5 nM
# T14 construct: mmh-tagged variant hPCSK9
# Description: as §1
# [16] = target: T15, hPCSK9(R357H) (human, UniProt Q8NBP7 31-692); assay: ELISA, mAb coated, variant 0-5 nM
# T15 construct: mmh-tagged variant hPCSK9
# Description: as §1
# [17] = target: T16, hPCSK9(E366K) (human, UniProt Q8NBP7 31-692); assay: ELISA, mAb coated, variant 0-5 nM
# T16 construct: mmh-tagged variant hPCSK9
# Description: as §1
# [18] = target: T17, hPCSK9(V380M) (human, UniProt Q8NBP7 31-692); assay: ELISA, mAb coated, variant 0-5 nM
# T17 construct: mmh-tagged variant hPCSK9
# Description: as §1
# [19] = target: T2, Human PCSK9-myc-myc-his; assay: competition ELISA vs EGF-A, pH 7.2
# Description: (§2) Briefly, hLDLR-ecto, hLDLR EGF-A-hFc or hLDLR EGF-AB-hFc, each at 2 μg/ml, was coated on a 96-well plate in PBS buffer overnight at 4° C., and nonspecific binding sites blocked with BSA. […] The equilibrated sample solutions were transferred to receptor or receptor fragment coated plates.
# [20] = target: T18, tagged rhesus monkey (Macaca mulata) PCSK9 (rhesus monkey (Macaca mulata), UniProt A8T666 31-692); assay: competition ELISA vs EGF-A, pH 7.2
# T18 construct: also called mmPCSK9-mmh; mmPCSK9
# Description: as §2
# [21] = target: T19, cynomolgus monkey (Macaca fascicularis) PCSK9, myc-myc-his tagged (cynomolgus monkey (Macaca fascicularis), UniProt A8T662 31-692 (Macaca nemestrina entry), limits assumed); assay: competition ELISA vs EGF-A, pH 7.2
# T19 construct: also called mfPCSK9-mmh; mfPCSK9
# Description: as §2
# [22] = target: T20, mouse PCSK9, myc-myc-his tagged (mouse, UniProt Q80W65 35-694); assay: competition ELISA vs EGF-A, pH 7.2
# T20 construct: also called mPCSK9-mmh; mPCSK9
# Description: as §2
# [23] = target: T1, his-tagged Syrian golden hamster …; assay: competition ELISA vs EGF-A, pH 7.2
# Description: as §2
# [24] = target: T21, rat (Rattus norvegicus) PCSK9, myc-myc-his tagged (rat (Rattus norvegicus), UniProt P59996 31-691); assay: competition ELISA vs EGF-A, pH 7.2
# T21 construct: also called rPCSK9-mmh; rPCSK9
# Description: as §2
# [25] = target: T2, Human PCSK9-myc-myc-his; assay: SPR, antigen captured at low density, pH 7.4, 25C
# T20 sequence (Q80W65 35-694 limits assumed): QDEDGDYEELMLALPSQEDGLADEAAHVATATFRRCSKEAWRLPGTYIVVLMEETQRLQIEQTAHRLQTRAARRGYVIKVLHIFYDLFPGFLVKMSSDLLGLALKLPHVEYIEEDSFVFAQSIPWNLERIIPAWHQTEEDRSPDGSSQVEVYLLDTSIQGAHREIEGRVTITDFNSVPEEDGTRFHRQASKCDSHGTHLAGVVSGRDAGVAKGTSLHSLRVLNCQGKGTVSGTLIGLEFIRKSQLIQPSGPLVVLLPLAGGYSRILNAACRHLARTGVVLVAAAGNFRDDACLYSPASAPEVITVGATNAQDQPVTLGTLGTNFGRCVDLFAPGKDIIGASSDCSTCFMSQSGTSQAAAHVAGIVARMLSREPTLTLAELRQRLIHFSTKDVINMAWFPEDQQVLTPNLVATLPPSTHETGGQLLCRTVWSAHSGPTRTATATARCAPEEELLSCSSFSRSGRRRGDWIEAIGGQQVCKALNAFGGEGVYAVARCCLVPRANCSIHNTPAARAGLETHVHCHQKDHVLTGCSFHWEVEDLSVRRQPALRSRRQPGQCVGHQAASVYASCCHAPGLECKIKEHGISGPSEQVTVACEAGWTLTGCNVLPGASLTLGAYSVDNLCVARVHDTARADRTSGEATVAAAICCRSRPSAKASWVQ
# T19 sequence (A8T662 31-692 limits assumed): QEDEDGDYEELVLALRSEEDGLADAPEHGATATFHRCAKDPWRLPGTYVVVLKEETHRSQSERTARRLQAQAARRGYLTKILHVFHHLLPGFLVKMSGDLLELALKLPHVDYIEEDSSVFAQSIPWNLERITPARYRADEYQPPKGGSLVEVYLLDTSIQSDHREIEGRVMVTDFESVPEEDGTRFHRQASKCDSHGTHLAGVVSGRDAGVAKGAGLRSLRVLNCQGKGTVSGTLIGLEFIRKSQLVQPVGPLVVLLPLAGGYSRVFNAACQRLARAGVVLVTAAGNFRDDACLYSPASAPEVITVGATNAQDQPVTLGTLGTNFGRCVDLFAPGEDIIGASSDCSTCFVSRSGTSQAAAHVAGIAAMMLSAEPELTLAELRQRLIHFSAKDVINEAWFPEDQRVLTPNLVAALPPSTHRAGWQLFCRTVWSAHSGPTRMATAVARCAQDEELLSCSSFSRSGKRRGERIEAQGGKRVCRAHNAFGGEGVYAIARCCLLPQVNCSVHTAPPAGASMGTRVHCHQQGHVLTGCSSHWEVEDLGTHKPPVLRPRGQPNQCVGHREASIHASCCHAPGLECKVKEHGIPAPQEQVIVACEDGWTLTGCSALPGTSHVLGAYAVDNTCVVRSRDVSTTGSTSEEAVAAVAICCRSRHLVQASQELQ
# T21 sequence (P59996 31-691 limits assumed): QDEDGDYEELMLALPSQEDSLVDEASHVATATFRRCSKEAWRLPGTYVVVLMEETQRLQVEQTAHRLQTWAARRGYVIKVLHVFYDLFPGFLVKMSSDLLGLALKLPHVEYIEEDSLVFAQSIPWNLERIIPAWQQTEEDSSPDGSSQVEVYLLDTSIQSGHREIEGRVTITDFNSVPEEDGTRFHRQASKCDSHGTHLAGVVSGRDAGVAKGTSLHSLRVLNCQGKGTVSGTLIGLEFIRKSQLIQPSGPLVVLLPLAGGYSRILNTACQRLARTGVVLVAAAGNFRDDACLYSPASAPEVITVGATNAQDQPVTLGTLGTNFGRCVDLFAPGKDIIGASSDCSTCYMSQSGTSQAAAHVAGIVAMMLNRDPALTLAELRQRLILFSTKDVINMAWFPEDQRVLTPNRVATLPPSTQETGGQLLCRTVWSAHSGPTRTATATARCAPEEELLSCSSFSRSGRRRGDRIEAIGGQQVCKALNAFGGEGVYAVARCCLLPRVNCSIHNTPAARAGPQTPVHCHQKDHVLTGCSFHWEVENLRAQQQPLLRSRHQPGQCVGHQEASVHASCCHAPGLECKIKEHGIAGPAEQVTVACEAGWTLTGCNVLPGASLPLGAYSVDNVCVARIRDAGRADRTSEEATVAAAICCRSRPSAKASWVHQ
# T18 sequence (A8T666 31-692 limits assumed): as the sequence (A8T662 31-692 limits assumed) above, with A607P, E639K counted along it
Binder,OD [1] [od],OD [2] [od],OD [3] [od],OD [4] [od],OD [5] [od],OD [6] [od],OD [7] [od],OD [8] [od],OD [9] [od],OD [10] [od],OD [11] [od],OD [12] [od],OD [13] [od],OD [14] [od],OD [15] [od],OD [16] [od],OD [17] [od],OD [18] [od],IC50 [19] [nM],IC50 [20] [nM],also measured
B1,> 1.5,> 1.5,> 1.5,> 1.5,> 1.5,> 1.5,> 1.5,> 1.5,> 1.5,> 1.5,> 1.5,> 1.5,> 1.5,> 1.5,> 1.5,> 1.5,> 1.5,> 1.5,< 0.125,< 0.25,IC50 [21]: 0.075 nM; IC50 [22]: 0.305 nM; IC50 [23]: 0.349 nM; IC50 [24]: 2.66 nM; Kd [25]: 0.339 nM; T1/2 [25]: 0.75 h
B2,> 1.5,> 1.5,> 1.5,> 1.5,> 1.5,> 1.5,> 1.5,> 1.5,> 1.5,> 1.5,> 1.5,> 1.5,> 1.5,> 1.5,> 1.5,> 1.5,0.7 to 1.5,> 1.5,0.182,0.46,IC50 [21]: 0.473 nM; IC50 [22]: > 100 nM; IC50 [23]: > 100 nM; IC50 [24]: > 100 nM; Kd [25]: 0.31 nM; T1/2 [25]: 1.98 h
